In the supplement of paper PMC10065799, “High-throughput profiling of sequence recognition by tyrosine kinases and SH2 domains using bacterial peptide display” (eLife, 2023):

Assays:
[1] = test system: AncSZ; experiment: phosphorylation enrichment, bacterial display (enrichment ratio); higher = better substrate or ligand; peptides without Tyr show the background
[2] = target: EPHB1 (UniProt P54762); experiment: as above
[3] = target: EPHB2 (UniProt P29323); experiment: as above
[4] = target: FGFR1 (UniProt P11362); experiment: as above
[5] = target: FGFR3 (UniProt P22607); experiment: as above
[6] = test system: Fer (mouse); experiment: as above
[7] = target: Fes (UniProt P07332); experiment: as above
[8] = target: Fyn (UniProt P06241); experiment: as above
[9] = target: Hck (UniProt P08631); experiment: as above
[10] = target: Jak2 (UniProt O60674); experiment: as above
[11] = target: MERTK (UniProt Q12866); experiment: as above
[12] = test system: c-Abl (mouse); experiment: as above
[13] = test system: c-Src; experiment: as above
[14] = target: Grb2 SH2 (UniProt P62993); experiment: SH2 binding enrichment of the phosphorylated peptide, bacterial display (enrichment ratio); higher = better substrate or ligand; peptides without Tyr show the background
[15] = target: SHP2-C SH2; experiment: as above
[16] = target: c-Src SH2; experiment: as above
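Throughout, for SH2 binding enrichment of the phosphorylated peptide, bacterial display: peptide library displayed on the E. coli surface as eCPX fusions, selected cells deep-sequenced, score is each peptide's frequency after selection divided by its frequency in the input.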
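Throughout, for phosphorylation enrichment, bacterial display: 11-residue human phosphosite peptides and single-mutation variants displayed on the E. coli surface, counted by deep sequencing, each peptide's frequency after selection divided by its frequency in the unselected input library; frequency after pTyr selection over input frequency; kinase dosed for 20-30% of maximal phosphorylation in three min.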

Chain of EPHB1 (P54762 whole entry, looked up): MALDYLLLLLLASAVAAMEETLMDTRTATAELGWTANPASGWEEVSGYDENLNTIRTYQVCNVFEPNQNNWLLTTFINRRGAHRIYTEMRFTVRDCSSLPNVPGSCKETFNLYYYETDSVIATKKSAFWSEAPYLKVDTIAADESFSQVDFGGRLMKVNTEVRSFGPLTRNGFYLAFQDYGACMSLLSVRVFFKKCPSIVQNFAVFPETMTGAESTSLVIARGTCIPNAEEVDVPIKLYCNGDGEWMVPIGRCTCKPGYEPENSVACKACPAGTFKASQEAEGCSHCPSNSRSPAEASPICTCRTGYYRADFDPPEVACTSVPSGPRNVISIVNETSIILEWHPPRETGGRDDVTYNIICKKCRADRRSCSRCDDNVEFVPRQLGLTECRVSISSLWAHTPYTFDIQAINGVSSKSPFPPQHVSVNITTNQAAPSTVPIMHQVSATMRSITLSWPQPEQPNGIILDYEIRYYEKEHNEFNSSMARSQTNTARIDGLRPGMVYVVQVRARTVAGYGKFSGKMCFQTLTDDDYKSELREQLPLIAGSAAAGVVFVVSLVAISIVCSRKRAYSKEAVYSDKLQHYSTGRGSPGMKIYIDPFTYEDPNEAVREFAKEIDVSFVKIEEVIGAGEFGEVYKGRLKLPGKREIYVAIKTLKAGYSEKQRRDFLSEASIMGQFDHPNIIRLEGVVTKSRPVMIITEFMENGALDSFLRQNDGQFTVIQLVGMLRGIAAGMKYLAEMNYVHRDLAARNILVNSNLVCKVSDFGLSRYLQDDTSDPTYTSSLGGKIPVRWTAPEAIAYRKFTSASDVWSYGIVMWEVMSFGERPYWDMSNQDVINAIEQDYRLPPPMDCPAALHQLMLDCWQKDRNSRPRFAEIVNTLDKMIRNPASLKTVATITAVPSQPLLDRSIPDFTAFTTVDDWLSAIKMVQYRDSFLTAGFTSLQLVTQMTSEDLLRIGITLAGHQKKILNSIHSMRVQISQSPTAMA
Chain of Fyn (P06241 whole entry, looked up): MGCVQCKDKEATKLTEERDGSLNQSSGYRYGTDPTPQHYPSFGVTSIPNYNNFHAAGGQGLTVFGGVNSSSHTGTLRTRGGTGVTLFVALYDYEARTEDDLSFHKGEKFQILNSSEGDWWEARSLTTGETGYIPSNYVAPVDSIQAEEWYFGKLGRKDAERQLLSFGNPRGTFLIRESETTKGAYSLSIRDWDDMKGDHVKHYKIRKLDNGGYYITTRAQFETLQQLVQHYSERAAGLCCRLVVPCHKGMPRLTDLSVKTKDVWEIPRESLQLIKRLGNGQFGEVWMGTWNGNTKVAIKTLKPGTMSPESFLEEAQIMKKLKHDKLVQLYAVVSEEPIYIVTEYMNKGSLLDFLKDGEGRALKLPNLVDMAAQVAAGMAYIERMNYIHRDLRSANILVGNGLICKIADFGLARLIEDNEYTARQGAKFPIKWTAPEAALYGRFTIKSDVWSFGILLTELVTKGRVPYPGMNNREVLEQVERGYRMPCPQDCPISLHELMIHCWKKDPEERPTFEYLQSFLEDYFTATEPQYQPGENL
Chain of FGFR1 (P11362 whole entry, looked up): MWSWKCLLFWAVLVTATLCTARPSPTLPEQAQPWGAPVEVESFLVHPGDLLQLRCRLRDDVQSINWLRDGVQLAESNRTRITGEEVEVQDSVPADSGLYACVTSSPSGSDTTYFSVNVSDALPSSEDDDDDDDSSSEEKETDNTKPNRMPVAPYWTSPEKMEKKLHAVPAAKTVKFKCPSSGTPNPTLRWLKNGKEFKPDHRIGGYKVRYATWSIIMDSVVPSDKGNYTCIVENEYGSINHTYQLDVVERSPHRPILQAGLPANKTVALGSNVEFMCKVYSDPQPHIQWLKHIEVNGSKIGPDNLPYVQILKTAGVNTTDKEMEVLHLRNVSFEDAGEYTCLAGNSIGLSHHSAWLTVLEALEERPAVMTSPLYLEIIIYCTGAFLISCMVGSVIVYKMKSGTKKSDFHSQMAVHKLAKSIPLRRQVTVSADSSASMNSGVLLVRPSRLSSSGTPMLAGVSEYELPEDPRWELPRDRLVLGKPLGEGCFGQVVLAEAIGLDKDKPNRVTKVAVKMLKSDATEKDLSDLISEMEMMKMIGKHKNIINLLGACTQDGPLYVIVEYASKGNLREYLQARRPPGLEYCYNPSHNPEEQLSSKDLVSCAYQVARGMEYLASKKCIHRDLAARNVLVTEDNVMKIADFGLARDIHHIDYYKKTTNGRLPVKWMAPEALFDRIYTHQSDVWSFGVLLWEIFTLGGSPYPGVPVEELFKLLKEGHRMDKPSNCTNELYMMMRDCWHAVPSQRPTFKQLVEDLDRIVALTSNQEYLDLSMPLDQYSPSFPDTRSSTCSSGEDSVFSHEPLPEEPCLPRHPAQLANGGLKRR
Chain of MERTK (Q12866 whole entry, looked up): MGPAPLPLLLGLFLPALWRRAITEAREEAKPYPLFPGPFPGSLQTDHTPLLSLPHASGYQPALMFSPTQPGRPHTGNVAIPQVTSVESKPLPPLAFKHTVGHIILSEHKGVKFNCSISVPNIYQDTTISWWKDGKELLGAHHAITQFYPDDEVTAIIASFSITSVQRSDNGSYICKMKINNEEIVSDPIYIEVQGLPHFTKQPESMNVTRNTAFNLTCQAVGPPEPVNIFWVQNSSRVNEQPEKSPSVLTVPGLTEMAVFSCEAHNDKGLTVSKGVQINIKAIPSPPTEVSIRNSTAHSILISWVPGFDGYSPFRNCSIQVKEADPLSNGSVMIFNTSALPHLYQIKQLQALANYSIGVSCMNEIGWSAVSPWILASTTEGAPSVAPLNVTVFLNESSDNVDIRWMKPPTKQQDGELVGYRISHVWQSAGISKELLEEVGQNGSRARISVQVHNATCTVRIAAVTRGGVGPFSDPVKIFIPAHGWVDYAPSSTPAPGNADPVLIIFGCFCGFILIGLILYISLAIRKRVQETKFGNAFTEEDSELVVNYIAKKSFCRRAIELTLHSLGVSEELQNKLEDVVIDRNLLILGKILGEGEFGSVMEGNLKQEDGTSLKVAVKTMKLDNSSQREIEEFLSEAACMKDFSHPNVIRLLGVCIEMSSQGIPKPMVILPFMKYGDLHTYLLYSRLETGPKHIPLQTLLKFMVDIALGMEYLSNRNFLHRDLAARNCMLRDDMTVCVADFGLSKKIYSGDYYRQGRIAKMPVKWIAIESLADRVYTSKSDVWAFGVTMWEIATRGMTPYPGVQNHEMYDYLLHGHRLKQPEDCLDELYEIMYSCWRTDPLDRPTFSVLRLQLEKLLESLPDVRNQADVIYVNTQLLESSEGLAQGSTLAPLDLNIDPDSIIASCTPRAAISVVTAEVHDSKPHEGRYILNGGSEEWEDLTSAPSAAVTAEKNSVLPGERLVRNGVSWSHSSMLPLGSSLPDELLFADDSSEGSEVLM
Chain of FGFR3 (P22607 whole entry, looked up): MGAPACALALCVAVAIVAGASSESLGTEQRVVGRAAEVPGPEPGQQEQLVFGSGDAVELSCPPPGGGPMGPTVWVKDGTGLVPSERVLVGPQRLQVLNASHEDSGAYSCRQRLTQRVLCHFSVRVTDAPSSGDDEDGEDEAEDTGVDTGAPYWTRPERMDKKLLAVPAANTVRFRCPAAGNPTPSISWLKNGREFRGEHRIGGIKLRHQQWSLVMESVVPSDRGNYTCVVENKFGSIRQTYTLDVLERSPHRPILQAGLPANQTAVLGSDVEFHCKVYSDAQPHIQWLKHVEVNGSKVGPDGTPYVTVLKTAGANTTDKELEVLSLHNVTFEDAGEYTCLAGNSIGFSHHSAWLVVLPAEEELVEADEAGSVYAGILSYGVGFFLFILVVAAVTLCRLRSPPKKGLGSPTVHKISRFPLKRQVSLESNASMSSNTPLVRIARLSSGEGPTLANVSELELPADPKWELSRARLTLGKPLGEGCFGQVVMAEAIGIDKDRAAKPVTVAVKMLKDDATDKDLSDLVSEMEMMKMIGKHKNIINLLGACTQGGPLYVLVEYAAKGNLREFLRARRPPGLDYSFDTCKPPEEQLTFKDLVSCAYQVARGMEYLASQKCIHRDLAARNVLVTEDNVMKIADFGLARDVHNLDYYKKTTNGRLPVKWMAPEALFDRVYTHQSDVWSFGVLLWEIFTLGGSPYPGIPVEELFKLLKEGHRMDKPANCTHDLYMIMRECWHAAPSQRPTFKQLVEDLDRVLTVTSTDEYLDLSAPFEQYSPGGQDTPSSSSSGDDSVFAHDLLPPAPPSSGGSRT
Chain of Fes (P07332 whole entry, looked up): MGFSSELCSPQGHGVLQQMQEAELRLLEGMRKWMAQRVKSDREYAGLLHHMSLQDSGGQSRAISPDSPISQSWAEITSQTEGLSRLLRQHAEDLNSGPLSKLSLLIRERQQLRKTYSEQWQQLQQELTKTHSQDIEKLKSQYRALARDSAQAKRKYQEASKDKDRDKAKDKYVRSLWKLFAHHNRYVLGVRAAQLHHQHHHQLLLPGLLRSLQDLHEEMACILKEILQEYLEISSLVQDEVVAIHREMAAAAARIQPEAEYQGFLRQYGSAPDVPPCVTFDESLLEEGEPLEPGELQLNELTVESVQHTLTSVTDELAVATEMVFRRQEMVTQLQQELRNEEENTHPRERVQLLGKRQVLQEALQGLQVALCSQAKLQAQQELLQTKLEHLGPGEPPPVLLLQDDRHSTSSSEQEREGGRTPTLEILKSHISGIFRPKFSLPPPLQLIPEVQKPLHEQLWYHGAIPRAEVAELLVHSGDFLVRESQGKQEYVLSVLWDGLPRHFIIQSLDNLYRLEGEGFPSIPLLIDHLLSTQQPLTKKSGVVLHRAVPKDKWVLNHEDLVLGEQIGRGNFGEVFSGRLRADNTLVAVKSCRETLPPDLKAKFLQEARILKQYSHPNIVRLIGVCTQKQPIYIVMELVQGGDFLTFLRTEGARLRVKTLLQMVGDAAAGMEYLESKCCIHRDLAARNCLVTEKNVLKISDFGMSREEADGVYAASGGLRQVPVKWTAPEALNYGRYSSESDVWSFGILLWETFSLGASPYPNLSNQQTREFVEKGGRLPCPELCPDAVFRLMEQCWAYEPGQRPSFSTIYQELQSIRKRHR

SH2 binding enrichment [14]	SH2 binding enrichment [15]	SH2 binding enrichment [16]	Sequence	phosphorylation enrichment [1]	phosphorylation enrichment [2]	phosphorylation enrichment [3]	phosphorylation enrichment [4]	phosphorylation enrichment [5]	phosphorylation enrichment [6]	phosphorylation enrichment [7]	phosphorylation enrichment [8]	phosphorylation enrichment [9]	phosphorylation enrichment [10]	phosphorylation enrichment [11]	phosphorylation enrichment [12]	phosphorylation enrichment [13]
0.68	0.515	0.415	KDAGDYKYKAK [LRIT3_Y326_C328Y]	0.398	0.353	0.366	0.337	0.387	0.256	0.604	0.308	0.346	0.519	0.32	0.571	0.319
0.635	0.554	0.425	SVTCTYSPAPN [TP53_Y126_L130P]	1.12	0.517	0.581	0.495	0.83	0.503	1.14	0.435	0.501	0.999	0.362	0.776	0.509
1.01	0.838	0.58	IRFSDYVEVAD [PHACTR1_Y525]	1.41	1.42	0.977	1.88	1.58	0.431	1.01	0.538	0.519	1.01	0.434	0.755	0.448
0.589	0.431	3.29	SRDDYYETIAM [NPY1R_Y347_D346Y]	1.33	2.19	1.53	8.35	6.01	4.75	1.01	0.798	1.18	0.808	0.467	0.634	0.656
0.672	0.564	1.24	FRSSLYSLMET [MYO5C_Y633_L634S]	1.12	4.17	1.84	0.898	0.947	9.51	1.16	4.25	4.03	0.77	12.4	0.629	4.03
0.918	0.687	0.598	DLVSEYQQFQD [TUBB3_Y422_YF]	1.52	0.721	0.662	0.671	1.01	0.58	1.33	0.675	0.643	1.25	0.511	0.8	0.657
1.1	0.581	1.02	KSAAIYNPVIY [RHO_Y301]	0.758	0.805	0.744	1.41	1.25	15.4	0.72	7.54	8.17	0.573	3.42	0.727	6.12
0.813	0.757	0.519	TINPIHEHVGF [CHN1_Y143_Y143H_YF]	0.433	0.321	0.346	0.393	0.441	0.397	0.619	0.335	0.299	0.429	0.328	0.477	0.339
0.72	0.781	0.577	YSIDHYLGKEM [G6PD_Y202_R198S]	0.773	0.509	0.561	0.589	0.617	0.455	0.671	0.568	0.563	0.828	1.3	0.555	0.538
0.853	2.4	2.23	SSQTVYQRVEG [TFR2_Y23]	0.962	0.631	0.447	0.526	0.483	0.517	0.708	0.6	0.77	0.596	0.499	0.458	0.585
1.03	0.574	0.429	PLQDVYKIGGI [EEF1A2_Y254]	1.01	2.02	0.572	0.505	0.793	0.679	0.981	2.3	1.04	1	0.522	1.92	4.34
0.928	0.807	0.587	IRKTEYPFSSE [ATP2C1_Y452_A450T]	0.582	0.426	0.397	0.466	0.449	0.339	0.837	0.401	0.405	0.599	0.348	0.549	0.428
0.806	0.514	0.505	AAGGRYDGLVG [HARS1_Y363]	0.677	0.357	0.351	0.291	0.48	0.306	0.615	0.346	0.351	0.489	0.378	0.538	0.348
2.08	1.43	1.03	IGMIIYFARKA [VCAM1_Y718]	0.9	0.487	2.23	0.515	0.72	0.417	0.957	0.481	1.09	0.88	0.374	0.734	0.449
1.45	1.55	1.08	HQKKPYCHTHN [NRAP_Y53_A56T]	1.88	1.7	0.854	1.27	3.53	1.34	2.33	1.04	1.13	3.44	0.627	1.21	0.794
0.95	1.11	0.603	EKLQKYYRKNP [EHHADH_Y682_Q685K]	0.575	0.471	0.484	0.45	0.598	0.417	0.753	0.388	0.353	0.694	0.394	0.699	0.482
0.932	0.784	0.619	IKGNMYFENSF [EGFR_Y112_R108K_YF]	0.991	0.589	0.446	0.516	0.677	0.471	0.951	0.533	0.397	1.02	0.539	0.897	0.657
